# From the supplement of paper PMC11316812
# ± gives the standard deviation of the averaged measurements.
# Assays:
# hTERT-HMEC = experiment: percentage of EdU-negative (G0-arrested) nuclei per well, 72 h; higher = more G0 arrest; details: reference: sequence is the full UniProt precursor, the tested protein was the secreted form or ectodomain
# MCF7 = experiment: as above; details: reference: sequence is the full UniProt precursor, the tested protein was the secreted form or ectodomain
# [1] = protein concentration 0.0225 µM
# [2] = protein concentration 0.0055 µM
# [3] = protein concentration 0.01975 µM
# [4] = protein concentration 0.1975 µM
# [5] = protein concentration 0.03125 µM
# [6] = protein concentration 0.3125 µM
# 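Also: secreted proteins added to cultured cells, EdU pulse at the end, nuclei found by Hoechst imaging, EdU status from nuclear versus surrounding ring intensity ratio, PBS as neutral control.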
Sequence,percentage of EdU-negative (hTERT-HMEC; [1]),percentage of EdU-negative (hTERT-HMEC; protein concentration 0.225 µM),percentage of EdU-negative (MCF7; [1]),percentage of EdU-negative (MCF7; protein concentration 0.225 µM),percentage of EdU-negative (hTERT-HMEC; [5]),percentage of EdU-negative (hTERT-HMEC; [6]),percentage of EdU-negative (MCF7; [5]),percentage of EdU-negative (MCF7; [6]),other results
MWCIVLFSLLAWVYAEPTMYGEILSPNYPQAYPSEVEKSWDIEVPEGYGIHLYFTHLDIELSENCAYDSVQIISGDTEEGRLCGQRSSNNPHSPIVEEFQVPYNKLQVIFKSDFSNEERFTGFAAYYVATDINECTDFVDVPCSHFCNNFIGGYFCSCPPEYFLHDDMKNCGVNCSGDVFTALIGEIASPNYPKPYPENSRCEYQIRLEKGFQVVVTLRREDFDVEAADSAGNCLDSLVFVAGDRQFGPYCGHGFPGPLNIETKSNALDIIFQTDLTGQKKGWKLRYHGDPMPCPKEDTPNSVWEPAKAKYVFRDVVQITCLDGFEVVEGRVGATSFYSTCQSNGKWSNSKLKCQPVDCGIPESIENGKVEDPESTLFGSVIRYTCEEPYYYMENGGGGEYHCAGNGSWVNEVLGPELPKCVPVCGVPREPFEEKQRIIGGSDADIKNFPWQVFFDNPWAGGALINEYWVLTAAHVVEGNREPTMYVGSTSVQTSRLAKSKMLTPEHVFIHPGWKLLEVPEGRTNFDNDIALVRLKDPVKMGPTVSPICLPGTSSDYNLMDGDLGLISGWGRTEKRDRAVRLKAARLPVAPLRKCKEVKVEKPTADAEAYVFTPNMICAGGEKGMDSCKGDSGGAFAVQDPNDKTKFYAAGLVSWGPQCGTYGLYTRVKNYVDWIMKTMQENSTPRED,4.97 ± 0.22%,6.85 ± 3.7%,23.9 ± 1.2%,24.2 ± 1.2%,,,,,
MWDLVLSIALSVGCTGAVPLIQSRIVGGWECEKHSQPWQVAVYSHGWAHCGGVLVHPQWVLTAAHCLKKNSQVWLGRHNLFEPEDTGQRVPVSHSFPHPLYNMSLLKHQSLRPDEDSSHDLMLLRLSEPAKITDVVKVLGLPTQEPALGTTCYASGWGSIEPEEFLRPRSLQCVSLHLLSNDMCARAYSEKVTEFMLCAGLWTGGKDTCGGDSGGPLVCNGVLQGITSWGPEPCALPEKPAVYTKVVHYRKWIKDTIAANP,4.38 ± 0.36%,5.65 ± 0.28%,23.8 ± 1.7%,24.8 ± 1.2%,,,,,
MWGLKVLLLPVVSFALYPEEILDTHWELWKKTHRKQYNNKVDEISRRLIWEKNLKYISIHNLEASLGVHTYELAMNHLGDMTSEEVVQKMTGLKVPLSHSRSNDTLYIPEWEGRAPDSVDYRKKGYVTPVKNQGQCGSCWAFSSVGALEGQLKKKTGKLLNLSPQNLVDCVSENDGCGGGYMTNAFQYVQKNRGIDSEDAYPYVGQEESCMYNPTGKAAKCRGYREIPEGNEKALKRAVARVGPVSVAIDASLTSFQFYSKGVYYDESCNSDNLNHAVLAVGYGIQKGNKHWIIKNSWGENWGNKGYILMARNKNNACGIANLASFPKM,,,,,,,,,percentage of EdU-negative (hTERT-HMEC; [2]): 4.75 ± 0.94%; percentage of EdU-negative (hTERT-HMEC; protein concentration 0.055 µM): 4.78 ± 0.37%; percentage of EdU-negative (MCF7; [2]): 25.3 ± 2.9%; percentage of EdU-negative (MCF7; protein concentration 0.055 µM): 27.4 ± 1.2%
MWGLLLALAAFAPAVGPALGAPRNSVLGLAQPGTTKVPGSTPALHSSPAQPPAETANGTSEQHVRIRVIKKKKVIMKKRKKLTLTRPTPLVTAGPLVTPTPAGTLDPAEKQETGCPPLGLESLRVSDSRLEASSSQSFGLGPHRGRLNIQSGLEDGDLYDGAWCAEEQDADPWFQVDAGHPTRFSGVITQGRNSVWRYDWVTSYKVQFSNDSRTWWGSRNHSSGMDAVFPANSDPETPVLNLLPEPQVARFIRLLPQTWLQGGAPCLRAEILACPVSDPNDLFLEAPASGSSDPLDFQHHNYKAMRKLMKQVQEQCPNITRIYSIGKSYQGLKLYVMEMSDKPGEHELGEPEVRYVAGMHGNEALGRELLLLLMQFLCHEFLRGNPRVTRLLSEMRIHLLPSMNPDGYEIAYHRGSELVGWAEGRWNNQSIDLNHNFADLNTPLWEAQDDGKVPHIVPNHHLPLPTYYTLPNATVAPETRAVIKWMKRIPFVLSANLHGGELVVSYPFDMTRTPWAARELTPTPDDAVFRWLSTVYAGSNLAMQDTSRRPCHSQDFSVHGNIINGADWHTVPGSMNDFSYLHTNCFEVTVELSCDKFPHENELPQEWENNKDALLTYLEQVRMGIAGVVRDKDTELGIADAVIAVDGINHDVTTAWGGDYWRLLTPGDYMVTASAEGYHSVTRNCRVTFEEGPFPCNFVLTKTPKQRLRELLAAGAKVPPDLRRRLERLRGQKD [Q96SM3],,,,,,,,,percentage of EdU-negative (hTERT-HMEC; [3]): 5.64 ± 1.2%; percentage of EdU-negative (hTERT-HMEC; [4]): 5.93 ± 0.071%; percentage of EdU-negative (MCF7; [3]): 26.1 ± 3.2%; percentage of EdU-negative (MCF7; [4]): 28.5 ± 1.1%
MWKRWLALALALVAVAWVRAEEELRSKSKICANVFCGAGRECAVTEKGEPTCLCIEQCKPHKRPVCGSNGKTYLNHCELHRDACLTGSKIQVDYDGHCKEKKSVSPSASPVVCYQSNRDELRRRIIQWLEAEIIPDGWFSKGSNYSEILDKYFKNFDNGDSRLDSSEFLKFVEQNETAINITTYPDQENNKLLRGLCVDALIELSDENADWKLSFQEFLKCLNPSFNPPEKKCALEDETYADGAETEVDCNRCVCACGNWVCTAMTCDGKNQKGAQTQTEEEMTRYVQELQKHQETAEKTKRVSTKEI,,,,,4.68 ± 0.16%,5.53 ± 0.92%,25.7 ± 0.72%,26.2 ± 3.6%,
MWLGRRALCALVLLLACASLGLLYASTRDAPGLRLPLAPWAPPQSPRRPELPDLAPEPRYAHIPVRIKEQVVGLLAWNNCSCESSGGGLPLPFQKQVRAIDLTKAFDPAELRAASATREQEFQAFLSRSQSPADQLLIAPANSPLQYPLQGVEVQPLRSILVPGLSLQAASGQEVYQVNLTASLGTWDVAGEVTGVTLTGEGQADLTLVSPGLDQLNRQLQLVTYSSRSYQTNTADTVRFSTEGHEAAFTIRIRHPPNPRLYPPGSLPQGAQYNISALVTIATKTFLRYDRLRALITSIRRFYPTVTVVIADDSDKPERVSGPYVEHYLMPFGKGWFAGRNLAVSQVTTKYVLWVDDDFVFTARTRLERLVDVLERTPLDLVGGAVREISGFATTYRQLLSVEPGAPGLGNCLRQRRGFHHELVGFPGCVVTDGVVNFFLARTDKVREVGFDPRLSRVAHLEFFLDGLGSLRVGSCSDVVVDHASKLKLPWTSRDAGAETYARYRYPGSLDESQMAKHRLLFFKHRLQCMTSQ,,,,,5.346 ± 0.02%,5.55 ± 0.9%,24.7 ± 5.6%,27 ± 3.4%,
